The labels stand for the following.
T1: β-catenin (UniProt P35222 134-665, limits assumed, biotinylated in the SPR and plate assays)
T1 sequence (looked up): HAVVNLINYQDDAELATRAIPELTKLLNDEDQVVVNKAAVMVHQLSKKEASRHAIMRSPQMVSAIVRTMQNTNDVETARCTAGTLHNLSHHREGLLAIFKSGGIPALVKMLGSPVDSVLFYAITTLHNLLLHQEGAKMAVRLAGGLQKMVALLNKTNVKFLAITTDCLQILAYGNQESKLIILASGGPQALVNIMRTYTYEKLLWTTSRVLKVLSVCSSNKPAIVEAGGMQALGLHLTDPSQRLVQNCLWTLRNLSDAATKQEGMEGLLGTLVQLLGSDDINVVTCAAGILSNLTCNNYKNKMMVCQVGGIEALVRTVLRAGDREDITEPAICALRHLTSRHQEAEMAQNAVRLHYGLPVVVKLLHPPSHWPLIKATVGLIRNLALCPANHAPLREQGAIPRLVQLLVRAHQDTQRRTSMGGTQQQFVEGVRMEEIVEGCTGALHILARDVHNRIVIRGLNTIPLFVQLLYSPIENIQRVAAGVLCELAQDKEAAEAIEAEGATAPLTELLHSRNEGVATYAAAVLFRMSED

B1: SEQ ID NO: 167 (peptide)
peptide: KMWFLICAWD
HELM: PEPTIDE1{K.M.W.F.L.I.C.A.W.D}$PEPTIDE1,PEPTIDE1,1:R3-10:R3$$$V2.0
SMILES: CC[C@H](C)[C@@H]1NC(=O)[C@H](CC(C)C)NC(=O)[C@H](Cc2ccccc2)NC(=O)[C@H](Cc2c[nH]c3ccccc23)NC(=O)[C@H](CCSC)NC(=O)[C@@H](N)CCCCNC(=O)C[C@@H](C(=O)O)NC(=O)[C@H](Cc2c[nH]c3ccccc23)NC(=O)[C@H](C)NC(=O)[C@H](CS)NC1=O
B2: SEQ ID NO: 171 (peptide)
peptide: KMWFLISFWD
HELM: PEPTIDE1{K.M.W.F.L.I.S.F.W.D}$PEPTIDE1,PEPTIDE1,1:R3-10:R3$$$V2.0
SMILES: CC[C@H](C)[C@@H]1NC(=O)[C@H](CC(C)C)NC(=O)[C@H](Cc2ccccc2)NC(=O)[C@H](Cc2c[nH]c3ccccc23)NC(=O)[C@H](CCSC)NC(=O)[C@@H](N)CCCCNC(=O)C[C@@H](C(=O)O)NC(=O)[C@H](Cc2c[nH]c3ccccc23)NC(=O)[C@H](Cc2ccccc2)NC(=O)[C@H](CO)NC1=O
B3: SEQ ID NO: 170 (peptide)
peptide: KMWFLICFWD
HELM: PEPTIDE1{K.M.W.F.L.I.C.F.W.D}$PEPTIDE1,PEPTIDE1,1:R3-10:R3$$$V2.0
SMILES: CC[C@H](C)[C@@H]1NC(=O)[C@H](CC(C)C)NC(=O)[C@H](Cc2ccccc2)NC(=O)[C@H](Cc2c[nH]c3ccccc23)NC(=O)[C@H](CCSC)NC(=O)[C@@H](N)CCCCNC(=O)C[C@@H](C(=O)O)NC(=O)[C@H](Cc2c[nH]c3ccccc23)NC(=O)[C@H](Cc2ccccc2)NC(=O)[C@H](CS)NC1=O
B4: SEQ ID NO: 104 (peptide)
peptide: WFLISSW
HELM: PEPTIDE1{W.F.L.I.S.[CCOC[C@H](N[*:1])C(=O)[*:2]].W}$$$$V2.0
SMILES: CCOC[C@H](NC(=O)[C@H](CO)NC(=O)[C@@H](NC(=O)[C@H](CC(C)C)NC(=O)[C@H](Cc1ccccc1)NC(=O)[C@@H](N)Cc1c[nH]c2ccccc12)[C@@H](C)CC)C(=O)N[C@@H](Cc1c[nH]c2ccccc12)C(=O)O
B5: SEQ ID NO: 169 (peptide)
peptide: KWFLICAWD
HELM: PEPTIDE1{[ac].K.W.F.L.I.C.A.W.D}$PEPTIDE1,PEPTIDE1,2:R3-10:R3$$$V2.0
SMILES: CC[C@H](C)[C@@H]1NC(=O)[C@H](CC(C)C)NC(=O)[C@H](Cc2ccccc2)NC(=O)[C@H](Cc2c[nH]c3ccccc23)NC(=O)[C@@H](NC(C)=O)CCCCNC(=O)C[C@@H](C(=O)O)NC(=O)[C@H](Cc2c[nH]c3ccccc23)NC(=O)[C@H](C)NC(=O)[C@H](CS)NC1=O
B6: SEQ ID NO: 183 (peptide)
peptide: KWFLISAWE
HELM: PEPTIDE1{K.W.F.L.I.S.A.W.E}$PEPTIDE1,PEPTIDE1,1:R3-9:R3$$$V2.0
SMILES: CC[C@H](C)[C@@H]1NC(=O)[C@H](CC(C)C)NC(=O)[C@H](Cc2ccccc2)NC(=O)[C@H](Cc2c[nH]c3ccccc23)NC(=O)[C@@H](N)CCCCNC(=O)CC[C@@H](C(=O)O)NC(=O)[C@H](Cc2c[nH]c3ccccc23)NC(=O)[C@H](C)NC(=O)[C@H](CO)NC1=O
B7: SEQ ID NO: 147 (peptide)
peptide: MWFLICFWD
HELM: PEPTIDE1{[O=C(CCCN[*:1])[*:2]].M.W.F.L.I.C.F.W.D}$PEPTIDE1,PEPTIDE1,1:R1-10:R3$$$V2.0
SMILES: CC[C@H](C)[C@@H]1NC(=O)[C@H](CC(C)C)NC(=O)[C@H](Cc2ccccc2)NC(=O)[C@H](Cc2c[nH]c3ccccc23)NC(=O)[C@H](CCSC)NC(=O)CCCNC(=O)C[C@@H](C(=O)O)NC(=O)[C@H](Cc2c[nH]c3ccccc23)NC(=O)[C@H](Cc2ccccc2)NC(=O)[C@H](CS)NC1=O
B8: SEQ ID NO: 168 (peptide)
peptide: KWFLICAWD
HELM: PEPTIDE1{K.W.F.L.I.C.A.W.D}$PEPTIDE1,PEPTIDE1,1:R3-9:R3$$$V2.0
SMILES: CC[C@H](C)[C@@H]1NC(=O)[C@H](CC(C)C)NC(=O)[C@H](Cc2ccccc2)NC(=O)[C@H](Cc2c[nH]c3ccccc23)NC(=O)[C@@H](N)CCCCNC(=O)C[C@@H](C(=O)O)NC(=O)[C@H](Cc2c[nH]c3ccccc23)NC(=O)[C@H](C)NC(=O)[C@H](CS)NC1=O
B9: SEQ ID NO: 141 (peptide)
peptide: VWFLICFWG
HELM: PEPTIDE1{[Nva].W.F.L.I.C.F.W.G}$$$$V2.0
SMILES: CCC[C@H](N)C(=O)N[C@@H](Cc1c[nH]c2ccccc12)C(=O)N[C@@H](Cc1ccccc1)C(=O)N[C@@H](CC(C)C)C(=O)N[C@H](C(=O)N[C@@H](CS)C(=O)N[C@@H](Cc1ccccc1)C(=O)N[C@@H](Cc1c[nH]c2ccccc12)C(=O)NCC(=O)O)[C@@H](C)CC
B10: SEQ ID NO: 179 (peptide)
peptide: KWFLICFWE
HELM: PEPTIDE1{K.W.F.L.I.C.F.W.E}$PEPTIDE1,PEPTIDE1,1:R3-9:R3$$$V2.0
SMILES: CC[C@H](C)[C@@H]1NC(=O)[C@H](CC(C)C)NC(=O)[C@H](Cc2ccccc2)NC(=O)[C@H](Cc2c[nH]c3ccccc23)NC(=O)[C@@H](N)CCCCNC(=O)CC[C@@H](C(=O)O)NC(=O)[C@H](Cc2c[nH]c3ccccc23)NC(=O)[C@H](Cc2ccccc2)NC(=O)[C@H](CS)NC1=O
B11: SEQ ID NO: 172 (peptide)
peptide: KWFLICFWD
HELM: PEPTIDE1{K.W.F.L.I.C.F.W.D}$PEPTIDE1,PEPTIDE1,1:R3-9:R3$$$V2.0
SMILES: CC[C@H](C)[C@@H]1NC(=O)[C@H](CC(C)C)NC(=O)[C@H](Cc2ccccc2)NC(=O)[C@H](Cc2c[nH]c3ccccc23)NC(=O)[C@@H](N)CCCCNC(=O)C[C@@H](C(=O)O)NC(=O)[C@H](Cc2c[nH]c3ccccc23)NC(=O)[C@H](Cc2ccccc2)NC(=O)[C@H](CS)NC1=O
B12: SEQ ID NO: 120 (peptide)
peptide: KWILICFWD
HELM: PEPTIDE1{K.W.I.L.I.C.F.W.D}$PEPTIDE1,PEPTIDE1,1:R3-9:R3$$$V2.0
SMILES: CC[C@H](C)[C@@H]1NC(=O)[C@H](CC(C)C)NC(=O)[C@H]([C@@H](C)CC)NC(=O)[C@H](Cc2c[nH]c3ccccc23)NC(=O)[C@@H](N)CCCCNC(=O)C[C@@H](C(=O)O)NC(=O)[C@H](Cc2c[nH]c3ccccc23)NC(=O)[C@H](Cc2ccccc2)NC(=O)[C@H](CS)NC1=O

The results in this text go back to US20260098059A1 (ENDOMET BIOSCIENCES, published 2026).

Several values for one entry are separate records, joined by “and”; a condition that tells them apart may be missing. Identical values can stand only once. [ ]: non-standard residue; d: D form. Trp(1-Me) = Cn1cc(C[C@H](N)C(=O)O)c2ccccc21; αMeW = C[C@](N)(Cc1c[nH]c2ccccc12)C(=O)O; Trp(3-Me) = 3-methyltryptophan; αMeL = CC(C)C[C@](C)(N)C(=O)O

In this test the target is T1, β-catenin. The experiment in a line: cell-based or functional assay.
In the case of H-KMWILICFWG-OH [SEQ ID NO: 113], the “Wnt Reporter EC50” value is over 30 µM.

As to H-HMWILICFWG-OH [SEQ ID NO: 114], the “Wnt Reporter EC50” value was at most 7.5 µM.

For the molecule B1, the “Wnt Reporter EC50” value was > 7.5 µM and ≤ 15 µM.

Turning to H-RMWILICFWG-OH [SEQ ID NO: 115], the “Wnt Reporter EC50” value is > 15 µM and ≤ 22.5 µM.

H-RMWILISFWG-OH [SEQ ID NO: 124]: the “Wnt Reporter EC50” value is > 7.5 µM and ≤ 15 µM.

For the molecule B2, the “Wnt Reporter EC50” value was at most 7.5 µM.

For B3, the “Wnt Reporter EC50” value is > 15 µM and ≤ 22.5 µM.

For H-WFLISFW-OH [SEQ ID NO: 110], the “Wnt Reporter EC50” value was > 7.5 µM and ≤ 15 µM.

As for B4, the “Wnt Reporter EC50” value was > 7.5 µM and ≤ 15 µM.

Take H-WFLISYW-OH [SEQ ID NO: 109]: the “Wnt Reporter EC50” value was > 7.5 µM and ≤ 15 µM.

Consider H-KWILICFWG-OH [SEQ ID NO: 117], for which the “Wnt Reporter EC50” value is > 15 µM and ≤ 22.5 µM.

With H-MWI[αMeL]ICFWG-OH [SEQ ID NO: 130], the “Wnt Reporter EC50” value was > 22.5 µM and ≤ 30 µM.

In the case of H-MWFLICHWG-OH [SEQ ID NO: 145], the “Wnt Reporter EC50” value is > 7.5 µM and ≤ 15 µM.

With H-M[αMeW]ILISFWG-OH [SEQ ID NO: 134], the “Wnt Reporter EC50” value was over 30 µM.

In the case of H-MWILISYWG-OH [SEQ ID NO: 152], the “Wnt Reporter EC50” value was at most 7.5 µM.

Take B5: the “Wnt Reporter EC50” value was at most 7.5 µM.

For the molecule B6, the “Wnt Reporter EC50” value was at most 7.5 µM.

Turning to B7, the “Wnt Reporter EC50” value is over 30 µM.

H-HWILICFWG-OH [SEQ ID NO: 118]: the “Wnt Reporter EC50” value was at most 7.5 µM.

For H-MWFLIHFWG-OH [SEQ ID NO: 163], the “Wnt Reporter EC50” value is at most 7.5 µM.

Turning to H-MWFLICH[Trp(3-Me)]G-OH [SEQ ID NO: 135], the “Wnt Reporter EC50” value was > 7.5 µM and ≤ 15 µM.

Turning to B8, the “Wnt Reporter EC50” value was at most 7.5 µM.

On to H-MWFLICH[Trp(1-Me)]G-OH [SEQ ID NO: 140], for which the “Wnt Reporter EC50” value is > 15 µM and ≤ 22.5 µM.

With H-RWILICFWG-OH [SEQ ID NO: 119], the “Wnt Reporter EC50” value is > 7.5 µM and ≤ 15 µM.

With H-MWFLIQFWG-OH [SEQ ID NO: 143], the “Wnt Reporter EC50” value was > 7.5 µM and ≤ 15 µM.

Take B9: the “Wnt Reporter EC50” value was > 7.5 µM and ≤ 15 µM.

For B10, the “Wnt Reporter EC50” value was at most 7.5 µM.

For B11, the “Wnt Reporter EC50” value was at most 7.5 µM.

Consider B12, for which the “Wnt Reporter EC50” value was at most 7.5 µM.
